Assay results from patent US20140350088.

What was measured:
[1] = target: biotinylated human glucagon (Homo sapiens) (UniProt P01275); experiment: SPR; conditions: 37 C, HBS-EP pH 7.4
[2] = target: T1, human alpha-CGRP (Homo sapiens) (UniProt P06881); experiment: SPR; conditions: L-RNA, 37 C
T1 sequence: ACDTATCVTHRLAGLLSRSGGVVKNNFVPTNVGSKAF

[3] = target: biotinylated human glucagon (Homo sapiens) (UniProt P01275); experiment: competition; conditions: L-DNA; competitive pull-down, 37 C, 1 mM Mg, 1 mM Ca
human C5a (Homo sapiens) = target: T2, human C5a (Homo sapiens) (UniProt P01031); experiment: SPR; conditions: L-RNA; 37 C, HBS-EP pH 7.4
T2 sequence: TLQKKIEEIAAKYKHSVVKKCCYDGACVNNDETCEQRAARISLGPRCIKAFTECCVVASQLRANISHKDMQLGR

biotinylated human glucagon (Homo sapiens), sequence (P01275 53-81): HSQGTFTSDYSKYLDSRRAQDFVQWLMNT

ACTCGAGAGGAAAGGTTGGTAAAGGTTCGGTTGGATTCACTCGAGT [259-H6-002]
Kd ([1]; L-DNA): 10.9 nM

CAGACGUGUGUGGGUAGAUGCACCUGCGAUUCGCUAAAAAGUGCCACACGUCUG [NOX-G11stabi2]
Kd ([1]; L-RNA): 67.1 nM

CCGUGCUGUCGGAGACUACUCGUCGAGUAGAAAUAGGUCCCCUCCCACGG [226-F2-001-D41/D44]
Kd ([2]; dC at 41 and 44, 13-fold improvement over parent): 0.2 nM

CCGUGCUGUCGGAGACUACUCGUCGAGUAGAAAUAGGUCCCCUCCCACGG [226-F2-001-D41]
Kd ([2]; dC at 41, HBS-EP pH 7.4): 0.55 nM

CCGUGCUGUCGGAGACUACUCGUCGAGUAGAAAUAGGUCCCCUCCCACGG [226-F2-001-D44]
Kd ([2]; dC at 44, HBS-EP pH 7.4): 0.52 nM

CCGUGCUGUCGGAGACUACUCGUCGAGUAGAAAUAGGUCCCCUCCCACGG [226-F2-001]
Kd ([2]; HBS-EP pH 7.4): 2.6 nM

GCAGTGGGGAAATGGGAGGGCTAGGTGGAAGGAATCTGAGCTACTGC [257-E1-001]
Kd [3]: 186 nM

GCCUGAUGUGGUGGUGAAGGGUUGUUGGGUGUCGACGCACAGGC [NOX-D19001]
Kd (human C5a (Homo sapiens)): 1.4 nM
